Molecular target: T1, GST-ZW10 (full length GST-tagged human ZW10) (human, UniProt O43264 1-779)
T1 sequence (looked up): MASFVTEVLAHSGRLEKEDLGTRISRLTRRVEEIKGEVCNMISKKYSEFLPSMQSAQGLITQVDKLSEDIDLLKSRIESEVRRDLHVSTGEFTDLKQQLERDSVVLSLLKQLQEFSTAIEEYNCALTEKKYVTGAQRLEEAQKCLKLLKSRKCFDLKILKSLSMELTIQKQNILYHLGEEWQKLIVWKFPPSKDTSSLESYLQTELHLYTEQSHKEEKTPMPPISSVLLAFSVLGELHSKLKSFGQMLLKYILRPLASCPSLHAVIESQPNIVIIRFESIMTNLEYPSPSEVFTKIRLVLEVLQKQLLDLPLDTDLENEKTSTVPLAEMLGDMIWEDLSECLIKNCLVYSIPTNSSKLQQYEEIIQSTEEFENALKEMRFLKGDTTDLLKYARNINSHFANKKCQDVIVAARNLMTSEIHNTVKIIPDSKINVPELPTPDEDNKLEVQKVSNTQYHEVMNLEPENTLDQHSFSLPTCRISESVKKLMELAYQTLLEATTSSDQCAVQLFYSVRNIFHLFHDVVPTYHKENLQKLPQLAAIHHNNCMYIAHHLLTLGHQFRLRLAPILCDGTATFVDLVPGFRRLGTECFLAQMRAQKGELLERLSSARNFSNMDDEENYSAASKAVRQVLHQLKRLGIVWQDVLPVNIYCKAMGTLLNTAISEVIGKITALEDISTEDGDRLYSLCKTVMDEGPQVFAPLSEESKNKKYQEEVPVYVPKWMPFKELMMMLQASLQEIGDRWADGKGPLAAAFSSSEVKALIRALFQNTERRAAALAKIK
Test: pull-down

B1: His-tagged human Chmp4c (natural protein, UniProt Q96CF2 1-233, looked up)
chain: MSKLGKFFKGGGSSKSRAAPSPQEALVRLRETEEMLGKKQEYLENRIQREIALAKKHGTQNKRAALQALKRKKRFEKQLTQIDGTLSTIEFQREALENSHTNTEVLRNMGFAAKAMKSVHENMDLNKIDDLMQEITEQQDIAQEISEAFSQRVGFGDDFDEDELMAELEELEQEELNKKMTNIRLPNVPSSSLPAQPNRKPGMSSTARRSRAASSQRAEEEDDDIKQLAAWAT
binding result: binds

From paper PMC5839794 (The Journal of Cell Biology, 2018)
